Assay results as given in patent US20250270343A1 (Alector, published 2025).

T1: full-length untagged human GPNMB expressed on cells (human, UniProt Q14956 23-572)
T1 construct: also used here for GPNMB on human monocyte-derived macrophages in the functional assays; also called huGPNMB; Freestyle293-huGPNMB+
T1 sequence: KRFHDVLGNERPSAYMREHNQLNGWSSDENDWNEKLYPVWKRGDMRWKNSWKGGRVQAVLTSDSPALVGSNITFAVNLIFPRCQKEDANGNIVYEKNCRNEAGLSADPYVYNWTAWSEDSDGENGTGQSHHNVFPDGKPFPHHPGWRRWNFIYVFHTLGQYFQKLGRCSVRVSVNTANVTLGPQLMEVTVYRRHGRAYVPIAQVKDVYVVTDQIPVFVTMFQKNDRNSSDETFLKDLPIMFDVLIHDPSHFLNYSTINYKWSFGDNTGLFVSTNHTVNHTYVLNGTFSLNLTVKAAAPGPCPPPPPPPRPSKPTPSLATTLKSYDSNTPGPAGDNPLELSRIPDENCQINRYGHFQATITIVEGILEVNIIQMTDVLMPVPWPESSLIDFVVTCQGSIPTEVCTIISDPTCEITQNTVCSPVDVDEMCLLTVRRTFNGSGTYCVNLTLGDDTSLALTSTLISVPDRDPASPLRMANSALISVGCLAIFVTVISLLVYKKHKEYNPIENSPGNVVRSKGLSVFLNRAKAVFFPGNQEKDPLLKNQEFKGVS


Columns and labels:
[1] = biological target: T1, full-length untagged human GPNMB …; assay: FACS, FS293-huGPNMB+ cells; single-point FACS staining of Freestyle293-huGPNMB+ cells; weak signal, 2.0-fold over background
[2] = biological target: T1, full-length untagged human GPNMB …; assay: FACS, FS293-huGPNMB+ cells; single-point FACS staining of Freestyle293-huGPNMB+ cells; weak signal, 1.5-fold over background

| Binder | MFI fold over background [1] [fold] | MFI fold over background [2] [fold] |
| --- | --- | --- |
| anti-GPNMB antibody GPN-42 (antibody, human IgG1, V domains shown, chimeric) VH: DVKLVESGEDLVKPGGSLKLSCAASGFTFSSYAMSWVRQTPEKRLEWVAYISSGGDYIYYADTVKGRFTISRDNARNTLYLQMSSLKSEDTAMYYCTRDRYYDYDVRDYYTMDYWGQGTSVTVSS VL: DVMMTQTPLSLPVSLGDQASISCRSSQSLVHSNGNTYLHWFLQKPGQSPKLLIFRVSNRFSGVPDRFSGRGSGTDFTLKISRVEAEDLGVYFCSQTTHVPRTFGGGTTLEIK | 2 |  |
| anti-GPNMB antibody GPN-43 (antibody, human IgG1, V domains shown, chimeric) VH: EVQLQQSGPELVKPGASVKISCKASGYTFTDYYMNWVRQSHGKSLEWIGDINPYHGGSTYNQKIKVKATLTVDKSSSTAYMELRSLTSEDSAVYYCARNWPYFDYWGQGTTLTVSS VL: DIQMTQSPASLSASVGETVTITCRASENIYSFLVWYQQKQGKSPQLLVYNAKTLAEGVPSRFSGSGSGTQFSLKISSLQPEDFGSYYCQHHFGTPPYTFGGGTKLEIK |  | 1.5 |
